According to patent publication US20100317566A1 (MOREHOUSE SCHOOL OF MEDICINE, published 2010):

Key:
Experiment in all cases: FLAG-peptide resin pulldown from Jurkat lysate, SDS-PAGE, mass spectrometry
Mortalin/GRP75 = target: T1, Mortalin/GRP75 (UniProt P38646 47-679)
T1 construct: Endogenous protein pulled down from Jurkat cell lysate, identified by mass spectrometry and by Western blot (~75 kDa); also called glucose-regulated protein 75

Vimentin = target: T2, Vimentin (UniProt P08670 2-466)
T2 construct: Endogenous protein pulled down from Jurkat cell lysate, identified by mass spectrometry
T2 sequence (P08670 2-466 limits assumed): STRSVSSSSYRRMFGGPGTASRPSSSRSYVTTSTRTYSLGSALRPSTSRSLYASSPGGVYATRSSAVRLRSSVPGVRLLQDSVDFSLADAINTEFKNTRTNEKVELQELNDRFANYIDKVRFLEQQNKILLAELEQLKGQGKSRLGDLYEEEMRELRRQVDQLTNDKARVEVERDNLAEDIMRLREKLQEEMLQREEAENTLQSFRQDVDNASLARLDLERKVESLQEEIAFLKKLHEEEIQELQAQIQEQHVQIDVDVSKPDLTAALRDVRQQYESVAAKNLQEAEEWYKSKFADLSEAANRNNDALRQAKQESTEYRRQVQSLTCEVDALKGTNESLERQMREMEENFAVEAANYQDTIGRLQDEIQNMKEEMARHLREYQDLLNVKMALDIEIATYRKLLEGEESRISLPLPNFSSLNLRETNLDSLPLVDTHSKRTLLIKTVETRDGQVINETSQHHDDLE

GRP78 = target: T3, GRP78 (UniProt P11021 19-654)
T3 construct: Endogenous protein pulled down from Jurkat cell lysate, identified by mass spectrometry
T3 sequence (P11021 19-654 limits assumed): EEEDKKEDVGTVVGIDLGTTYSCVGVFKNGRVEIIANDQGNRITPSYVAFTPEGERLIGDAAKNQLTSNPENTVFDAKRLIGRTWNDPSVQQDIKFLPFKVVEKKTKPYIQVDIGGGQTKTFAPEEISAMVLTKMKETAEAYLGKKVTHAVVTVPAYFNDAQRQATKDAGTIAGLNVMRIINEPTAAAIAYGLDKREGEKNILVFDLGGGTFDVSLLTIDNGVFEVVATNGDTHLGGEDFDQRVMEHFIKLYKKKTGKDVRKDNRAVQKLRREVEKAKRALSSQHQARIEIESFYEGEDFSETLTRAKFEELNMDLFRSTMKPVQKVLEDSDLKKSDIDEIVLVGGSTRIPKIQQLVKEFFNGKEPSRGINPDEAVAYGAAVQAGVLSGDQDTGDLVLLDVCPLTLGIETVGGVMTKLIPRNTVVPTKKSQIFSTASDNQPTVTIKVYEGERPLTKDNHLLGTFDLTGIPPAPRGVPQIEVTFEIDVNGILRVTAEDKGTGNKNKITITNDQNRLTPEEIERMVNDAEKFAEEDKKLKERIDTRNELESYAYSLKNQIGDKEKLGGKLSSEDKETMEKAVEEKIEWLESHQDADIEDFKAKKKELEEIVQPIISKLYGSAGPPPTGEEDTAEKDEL

HSC70 = target: T4, HSC70 (UniProt P11142 2-646)
T4 construct: Endogenous protein pulled down from Jurkat cell lysate, identified by mass spectrometry
T4 sequence (P11142 2-646 limits assumed): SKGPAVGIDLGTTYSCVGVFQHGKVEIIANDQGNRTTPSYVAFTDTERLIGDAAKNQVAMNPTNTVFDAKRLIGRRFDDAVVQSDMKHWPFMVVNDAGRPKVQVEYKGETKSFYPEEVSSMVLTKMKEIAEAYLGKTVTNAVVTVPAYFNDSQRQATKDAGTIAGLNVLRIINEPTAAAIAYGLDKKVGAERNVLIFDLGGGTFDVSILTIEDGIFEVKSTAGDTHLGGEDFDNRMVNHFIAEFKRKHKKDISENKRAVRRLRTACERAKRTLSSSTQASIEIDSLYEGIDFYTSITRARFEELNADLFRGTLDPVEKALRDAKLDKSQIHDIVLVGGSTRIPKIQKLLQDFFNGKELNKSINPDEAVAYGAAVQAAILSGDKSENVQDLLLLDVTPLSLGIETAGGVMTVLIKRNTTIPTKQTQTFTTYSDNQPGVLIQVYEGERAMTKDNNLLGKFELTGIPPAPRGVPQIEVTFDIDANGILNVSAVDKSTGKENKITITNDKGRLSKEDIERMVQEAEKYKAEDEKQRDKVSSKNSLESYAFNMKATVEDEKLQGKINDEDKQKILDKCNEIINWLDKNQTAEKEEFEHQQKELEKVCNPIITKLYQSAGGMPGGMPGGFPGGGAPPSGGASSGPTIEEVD

Measured: binding result

T1 sequence (P38646 47-679 limits assumed): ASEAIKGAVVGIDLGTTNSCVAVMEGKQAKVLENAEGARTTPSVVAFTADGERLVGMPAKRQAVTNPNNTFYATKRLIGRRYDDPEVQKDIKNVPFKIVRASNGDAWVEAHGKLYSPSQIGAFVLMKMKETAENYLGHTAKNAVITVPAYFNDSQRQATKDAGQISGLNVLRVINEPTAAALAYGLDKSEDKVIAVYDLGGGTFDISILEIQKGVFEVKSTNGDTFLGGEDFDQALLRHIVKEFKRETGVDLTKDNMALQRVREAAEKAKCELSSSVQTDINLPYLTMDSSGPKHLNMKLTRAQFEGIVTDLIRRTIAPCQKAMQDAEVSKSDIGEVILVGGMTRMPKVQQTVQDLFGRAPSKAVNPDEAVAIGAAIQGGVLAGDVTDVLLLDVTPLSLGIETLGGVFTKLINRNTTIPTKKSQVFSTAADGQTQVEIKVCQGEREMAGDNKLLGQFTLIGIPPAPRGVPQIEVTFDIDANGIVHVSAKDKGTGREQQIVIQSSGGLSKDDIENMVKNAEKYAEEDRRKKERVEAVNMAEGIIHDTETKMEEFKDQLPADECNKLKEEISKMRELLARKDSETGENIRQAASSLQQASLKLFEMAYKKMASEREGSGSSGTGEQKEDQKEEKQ

B1: HIV-1 NefSMRmt peptide (H2N-AGFPVAAAGFPVDYKDDDDK-OH) (peptide)
peptide: H-AGFPVAAAGFPVDYKDDDDK-OH
notes: Made commercially; also called SMRmut; HIV-1 NefSMRmut
no binding: all assays above
